In article PMC6780499, “Characterization, Recombinant Production and Structure-Function Analysis of NvCI, A Picomolar Metallocarboxypeptidase Inhibitor from the Marine Snail Nerita versicolor” (Marine Drugs, 2019):
Read-outs that look alike come from different tables or passages of the source. No end group written: not given here.

Legend:
HepG2 cells = assay: Cellular uptake by confocal laser scanning microscopy; format: cell-based, human; conditions: HepG2, 20 µg/ml, 4 h at 37 °C, CLSM, LysoTracker and Hoechst staining
Method: Recombinant NvCI was fluorescently labelled with an Alexa Fluor 488 Protein Labeling Kit (Molecular Probes, Eugene, OR, USA). HepG2 cells were seeded in a 35 mm glass-bottom culture dish (MatTek Corporation, Ashland, MA, USA) at a density of 4 × 10^5 cells/well and incubated for 24 h. The cells were incubated with 20 µg/ml Alexa 488-NvCI for 4 h at 37 °C. Prior to imaging, lysosomes and nuclei were stained with Lysotracker Red and Hoechst (Invitrogen, Carlsbard, CA, USA), respectively, for 90 or 10 min.

bCPA1 [1] = biological target: T1, bCPA1 (Bos taurus, UniProt P00730); assay: Ki determination, tight-binding inhibition of metallocarboxypeptidase; format: biochemical, bovine; conditions: natural isoforms; apparent Ki, without correction by competing assays; read-out: derived Ki towards bCPA (apparent Ki values)
T1 sequence (P00730 111-419): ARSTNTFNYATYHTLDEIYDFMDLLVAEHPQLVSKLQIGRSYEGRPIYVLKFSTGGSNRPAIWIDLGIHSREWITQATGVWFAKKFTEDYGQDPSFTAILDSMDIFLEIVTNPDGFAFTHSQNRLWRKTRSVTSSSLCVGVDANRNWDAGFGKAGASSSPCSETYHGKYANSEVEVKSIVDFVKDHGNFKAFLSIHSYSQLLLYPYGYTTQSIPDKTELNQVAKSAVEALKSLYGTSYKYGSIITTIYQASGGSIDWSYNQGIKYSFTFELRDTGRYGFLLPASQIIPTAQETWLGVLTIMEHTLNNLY
Method: Inhibitory activities against CPA- and CPB-type forms (bovine and human variants of CPA1, CPA2, CPA4, CPB1, and TAFI) were assayed for all extracts, subject to the experimental conditions that enzyme (E), substrate (S) and inhibitor (I) concentrations as well as the [I]/[E] ratio and preincubation time followed the requirements for tight-binding inhibitor assays. Similar approaches were followed to measure the activities of proteases of different catalytic types, like pepsin, papain, trypsin and subtilisin [45, 46, 47, 48]. All assays were performed in triplicate at 25 °C in a multiplexed manner. For 96-well assays an iEMS spectrophotometer reader/dispenser FM (Labsystems, Finland) was used with a final reaction volume of 250 μL. For cuvette assays, a Cary 400 Bio spectrophotometer (Varian Inc., Palo Alto, CA, USA) spectrophotometer was used with a final reaction volume of 1 ml. The reactions were followed at 5 s intervals for 5 min and recorded as initial velocities. In the protease inhibition assays, mixtures of activity buffer, biological sample and enzyme were preincubated at 25 °C for 10min, before substrate addition. The assay conditions were as follows: for CPA-like enzymes, 7.0nM CPA, 0.1mM AAFP substrate in 20mM Tris-HCl pH 7.5, 500mMNaCl, 1% v/v dimethyl sulfoxide (DMSO), 0.05% w/v BRIJ-35 was used. For CPB-like enzymes, CPB 3.0nM CPB, 0.1mM AAFA substrate and activity buffer of 20 mM Tris-HCl pH [50].
The Ki values of natural and recombinant NvCI against bCPA1, hCPA1, hCPA2, rat CPA3, hCPA4, hCPB1, bTAFI, hTAFI, hCPD and hCPZ were determined by measuring the enzymatic residual activity (Vi/V0 = a) at different inhibitor concentrations and using a fixed enzyme and substrate concentrations as described above, where vi and v0 are the fraction of enzymatic activity in the presence and absence of inhibitor, respectively, in terms of initial velocities. The determination of Ki values was carried out on equilibrium conditions ([E0]/Ki ≤ 10), using a previously determined preincubation time of 15 min, required to establish enzyme-inhibitor equilibrium. Working temperature was 37 °C. The best estimates of Ki values were obtained by fitting the experimental data to the equation for tight-binding inhibitors by non-linear regression using the GraphPad Prisma 5 software (GraphPad Software, Inc., San Diego, CA, USA) at p < 0.05. The real Ki values against each of these A/B-type MCPs were calculated according to the equation described by Morrison and Copeland [19, 20].

hCPA2 = biological target: T2, hCPA2 (Homo sapiens, UniProt P48052); conditions: cited from earlier work
T2 sequence (P48052 115-419): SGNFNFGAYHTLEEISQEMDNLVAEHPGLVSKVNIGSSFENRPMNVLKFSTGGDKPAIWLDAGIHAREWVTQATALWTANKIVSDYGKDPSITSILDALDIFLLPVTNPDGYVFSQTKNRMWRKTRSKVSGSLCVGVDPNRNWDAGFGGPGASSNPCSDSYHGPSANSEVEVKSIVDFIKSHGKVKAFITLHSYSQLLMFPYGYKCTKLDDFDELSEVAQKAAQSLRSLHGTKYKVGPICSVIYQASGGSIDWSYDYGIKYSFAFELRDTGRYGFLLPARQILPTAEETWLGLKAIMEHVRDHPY
Excerpt: (§1) Table 2 Ki values of various proteinaceous metallocarboxypeptidases (MCPs) inhibitors. | column: Ki (nM) / rPCI (a); Ki (nM) / rTCI (b); Ki (nM) / rLCI (c); Ki (nM) / rACI (d); Ki (nM) / rhuman latexin (e)

hCPA4 = biological target: T3, hCPA4 (Homo sapiens, UniProt Q9UI42); conditions: cited from earlier work
T3 sequence (Q9UI42 114-421): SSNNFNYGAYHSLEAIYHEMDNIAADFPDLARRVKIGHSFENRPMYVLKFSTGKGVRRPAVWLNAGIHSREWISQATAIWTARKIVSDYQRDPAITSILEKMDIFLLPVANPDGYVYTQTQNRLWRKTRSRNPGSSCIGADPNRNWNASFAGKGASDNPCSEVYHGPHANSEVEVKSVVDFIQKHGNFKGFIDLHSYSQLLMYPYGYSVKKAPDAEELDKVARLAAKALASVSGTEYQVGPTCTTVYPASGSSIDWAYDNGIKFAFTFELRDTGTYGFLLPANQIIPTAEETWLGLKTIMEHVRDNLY
Excerpt: as §1

bCPA1 [2] = biological target: T1, bCPA1; conditions: cited from earlier work
Excerpt: as §1

hCPA1 = biological target: T4, hCPA1 (Homo sapiens, UniProt P15085); conditions: cited from earlier work
T4 sequence (P15085 111-419): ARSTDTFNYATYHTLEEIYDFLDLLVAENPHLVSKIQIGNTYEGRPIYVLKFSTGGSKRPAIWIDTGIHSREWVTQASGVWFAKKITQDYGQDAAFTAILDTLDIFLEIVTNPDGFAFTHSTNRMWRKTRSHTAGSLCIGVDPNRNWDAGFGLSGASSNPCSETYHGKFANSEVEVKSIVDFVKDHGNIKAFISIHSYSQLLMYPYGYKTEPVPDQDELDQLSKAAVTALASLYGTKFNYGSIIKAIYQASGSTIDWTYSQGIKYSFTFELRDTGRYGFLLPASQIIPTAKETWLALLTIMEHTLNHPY
Excerpt: as §1

hCPB = biological target: T5, hCPB (Homo sapiens, UniProt P15086); conditions: cited from earlier work
T5 sequence (P15086 111-417): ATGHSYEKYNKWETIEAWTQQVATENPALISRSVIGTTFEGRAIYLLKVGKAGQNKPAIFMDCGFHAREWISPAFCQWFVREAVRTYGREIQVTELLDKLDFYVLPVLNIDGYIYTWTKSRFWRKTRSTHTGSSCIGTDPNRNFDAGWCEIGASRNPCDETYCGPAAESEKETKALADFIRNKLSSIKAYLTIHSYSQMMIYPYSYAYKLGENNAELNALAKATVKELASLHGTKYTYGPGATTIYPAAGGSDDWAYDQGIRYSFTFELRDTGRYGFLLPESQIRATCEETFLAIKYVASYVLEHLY
Excerpt: Table 2 Ki values of various proteinaceous metallocarboxypeptidases (MCPs) inhibitors. | column: Ki (nM) / rPCI (a); Ki (nM) / rTCI (b); Ki (nM) / rLCI (c); Ki (nM) / rhuman latexin (e)

pCPB = biological target: T6, pCPB (Sus scrofa, UniProt P09955); conditions: ref Arolas et al., 2004 [21]; cited from earlier work
T6 sequence (P09955 111-416): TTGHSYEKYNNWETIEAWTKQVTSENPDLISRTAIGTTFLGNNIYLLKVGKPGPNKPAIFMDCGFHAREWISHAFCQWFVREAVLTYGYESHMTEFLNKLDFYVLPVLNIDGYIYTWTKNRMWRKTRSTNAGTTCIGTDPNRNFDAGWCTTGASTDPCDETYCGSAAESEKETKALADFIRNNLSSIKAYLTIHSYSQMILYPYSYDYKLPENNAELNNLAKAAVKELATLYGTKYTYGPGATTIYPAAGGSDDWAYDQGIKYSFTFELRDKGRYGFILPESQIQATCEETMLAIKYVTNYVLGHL
Excerpt: Table 2 Ki values of various proteinaceous metallocarboxypeptidases (MCPs) inhibitors. | column: Ki (nM) / rPCI (a); Ki (nM) / rTCI (b); Ki (nM) / rLCI (c)

hTAFI = biological target: T7, hTAFI (Homo sapiens, UniProt Q96IY4); conditions: cited from earlier work
T7 sequence (Q96IY4 115-423): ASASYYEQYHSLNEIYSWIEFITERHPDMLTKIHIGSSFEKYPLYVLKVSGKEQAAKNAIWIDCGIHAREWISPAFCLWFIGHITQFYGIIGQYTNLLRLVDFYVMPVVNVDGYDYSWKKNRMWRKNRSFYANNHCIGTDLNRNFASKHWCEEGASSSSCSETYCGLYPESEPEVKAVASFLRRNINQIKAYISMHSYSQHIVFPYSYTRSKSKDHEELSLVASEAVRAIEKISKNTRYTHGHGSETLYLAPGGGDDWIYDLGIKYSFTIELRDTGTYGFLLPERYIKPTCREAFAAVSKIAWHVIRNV
Excerpt: Table 2 Ki values of various proteinaceous metallocarboxypeptidases (MCPs) inhibitors. | column: Ki (nM) / rPCI (a); Ki (nM) / rTCI (b); Ki (nM) / rACI (d); Ki (nM) / rhuman latexin (e)

With “Alexa488-labelled NvCI: recombinant NvCI fluorescently labelled with an Alexa Fluor 488 Protein Labeling Kit (FHVPDDRPCINPGRCPLVPDATCTFVCKAADNDFGYECQHVWTFEGQRVGCYA; ends and bridges not checked; also: Alexa Fluor 488 label; UniProt P86912 1-53, looked up)” as the molecule, how does the “cellular uptake / internalization” value (HepG2 cells) read?
The value was “internalized NvCI was distributed through the cytoplasm”.

Which Ki (bCPA1 [1]) does the source give for “NvCIb: natural isoform of NvCI with N→K substitution at the 11th residue (FHVPDDRPCIKPGRCPLVPDATCTFVCKAADNDFGYECQHVWTFEGQRVGCYA; three intrachain disulphides)” here?
Its Ki is 0.038 ± 0.002 nM.

For “NvCIc: minor natural isoform, lacks the N-terminal Phe as compared to NvCIa (HVPDDRPCINPGRCPLVPDATCTFVCKAADNDFGYECQHVWTFEGQRVGCYA; three intrachain disulphides)”, which Ki (bCPA1 [1]) is on record?
The Ki was 0.049 ± 0.002 nM.

With “NvCId: minor natural isoform, lacks the N-terminal Phe as compared to NvCIb (HVPDDRPCIKPGRCPLVPDATCTFVCKAADNDFGYECQHVWTFEGQRVGCYA; three intrachain disulphides)” as the molecule, how does the Ki (bCPA1 [1]) read?
Its Ki is 0.022 ± 0.001 nM.

B1: rLCI: recombinant carboxypeptidase inhibitor from the medical leech Hirudo medicinalis (protein, UniProt P81511 16-81, looked up)
Metallocarboxypeptidase …: SHTPDESFLCYQPDQVCCFICRGAAPLPSEGECNPHPTAPWCREGAVEWVPYSTGQCRTTCIPYVE
For B1, which Ki (hCPA2; ref Arolas et al., 2004 [21]) is on record?
The Ki was 4.5 ± 0.6 nM.

What about the Ki (hCPA4; ref Tanco et al., 2010 [22]) of the same molecule?
The Ki was 7.3 ± 0.4 nM.

And the Ki (bCPA1 [2]; ref Arolas et al., 2004 [21])?
Its Ki is 1.1 ± 0.2 nM.

What about the Ki (hCPA1; ref Arolas et al., 2004 [21]) of the same molecule?
Its Ki is 1.3 ± 0.4 nM.

And the Ki (hCPB; ref Arolas et al., 2004 [21])?
The Ki was 1.2 ± 0.3 nM.

And the Ki (pCPB)?
The Ki was 2.4 ± 0.5 nM.

B2: rhuman latexin: recombinant human latexin, larger (19–22 kDa) endogenous protein inhibitor of carboxypeptidases (protein, UniProt Q9BS40 1-222, looked up)
Latexin: MEIPPTNYPASRAALVAQNYINYQQGTPHRVFEVQKVKQASMEDIPGRGHKYHLKFAVEEIIQKQVKVNCTAEVLYPSTGQETAPEVNFTFEGETGKNPDEEDNTFYQRLKSMKEPLEAQNIPDNFGNVSPEMTLVLHLAWVACGYIIWQNSTEDTWYKMVKIQTVKQVQRNDDFIELDYTILLHNIASQEIIPWQMQVLWHPQYGTKVKHNSRLPKEVQLE
Which results are given for B2?
Ki (hCPA2; ref Pallarès et al., 2005 [15]): 3.5 ± 0.3 nM; Ki (hCPA4; ref Pallarès et al., 2005 [15]): 3 ± 0.3 nM; Ki (bCPA1 [2]; ref Pallarès et al., 2005 [15]): 1.2 ± 0.2 nM; Ki (hCPA1; ref Pallarès et al., 2005 [15]): 1.6 ± 0.2 nM; Ki (hTAFI; ref Pallarès et al., 2005 [15]): 1.8 ± 0.3 nM; Ki (hCPB; ref Pallarès et al., 2005 [15]): 1.1 ± 0.1 nM

B3: rACI: recombinant carboxypeptidase inhibitor from the intestinal parasite Ascaris suum (protein)
chain: VRKCLSDTDCTNGEKCVQKNKICSTIVEIQRCEKEHFTIPCKSNNDCQVWAHEKICNKGCCWDLL
modifications: intrachain disulphides
For B3, which Ki (hCPA2; ref Sanglas et al., 2009 [10]) is on record?
The Ki was 2.5 ± 0.2 nM.

What about the Ki (hCPA4; ref Sanglas et al., 2009 [10]) of the same molecule?
Its Ki is 23.9 ± 3.1 nM.

And the Ki (bCPA1 [2]; ref Sanglas et al., 2009 [10])?
The Ki was 2.4 ± 0.3 nM.

And the Ki (hCPA1; ref Sanglas et al., 2009 [10])?
The Ki was 1.6 ± 0.2 nM.

And the Ki (hTAFI; ref Sanglas et al., 2009 [10])?
The Ki was 42 ± 1.7 nM.
